From patent US20250230244A1 (University of Texas, published 2025)

T1: B7-H3 peptide 6 (human)
T1 peptide: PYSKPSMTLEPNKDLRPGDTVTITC

T2: B7-H3 peptide 4 (human)
T2 peptide: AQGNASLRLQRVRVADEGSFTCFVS

T3: B7-H3 peptide 2 (human)
T3 peptide: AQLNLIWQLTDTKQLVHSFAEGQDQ

T4: B7-H3 peptide 8 (human)
T4 peptide: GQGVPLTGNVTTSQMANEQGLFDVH

T5: B7-H3 peptide 7 (human)
T5 peptide: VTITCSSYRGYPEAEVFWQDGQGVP

T6: B7-H3 peptide 1 (human)
T6 peptide: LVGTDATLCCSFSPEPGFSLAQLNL

T7: B7-H3 peptide 10 (human)
T7 peptide: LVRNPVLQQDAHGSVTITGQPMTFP

T8: B7-H3 peptide 5 (human)
T8 construct: Said to lie in the IgV domain spanning through the FG loop
T8 peptide: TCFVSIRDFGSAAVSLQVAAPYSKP

T9: B7-H3 peptide 3 (human)
T9 peptide: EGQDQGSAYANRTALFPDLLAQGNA


Legend:
B7-H3 peptide 6 [1] = molecular target: T1, B7-H3 peptide 6; experiment: biolayer interferometry (Octet) traces, concentrations not printed [continued), Peptide 6, left column]
Protocol: (§1) The Octet RED384 System (FortdBio) was used to further characterize the chimeric and murine clones. The kinetics of the clones were tested by measuring the interaction between the antibody and its target by bio-layer interferometry technology.
(§2) The inventors generated 10 peptides from the extracellular domain of B7-H3 with a span of 25 amino acids and an overlap of 5 amino acids with each subsequent peptide.

B7-H3 peptide 4 [2] = molecular target: T2, B7-H3 peptide 4; experiment: biolayer interferometry (Octet) traces, concentrations not printed [Peptide 4, column T-1A5]
B7-H3 peptide 2 [3] = molecular target: T3, B7-H3 peptide 2; experiment: biolayer interferometry (Octet) traces, concentrations not printed [Peptide 2, column T-1A5]
Protocol: as §1, §2

B7-H3 peptide 8 = molecular target: T4, B7-H3 peptide 8; experiment: biolayer interferometry (Octet), epitope mapping table [panel D, row Peptide 8]
Protocol: as §1, §2

B7-H3 peptide 7 = molecular target: T5, B7-H3 peptide 7; experiment: biolayer interferometry (Octet), epitope mapping table [panel D, row Peptide 7]
Protocol: as §1, §2

B7-H3 peptide 1 [4] = molecular target: T6, B7-H3 peptide 1; experiment: biolayer interferometry (Octet), epitope mapping table [panel D, row Peptide 1]
Protocol: as §1, §2

B7-H3 peptide 10 = molecular target: T7, B7-H3 peptide 10; experiment: biolayer interferometry (Octet), epitope mapping table [panel D, row Peptide 10]
Protocol: as §1, §2

B7-H3 peptide 5 [5] = molecular target: T8, B7-H3 peptide 5; experiment: biolayer interferometry (Octet), epitope mapping with B7-H3 peptides [panel D, row Peptide 5]
Protocol: as §1, §2

B7-H3 peptide 3 [6] = molecular target: T9, B7-H3 peptide 3; experiment: biolayer interferometry (Octet) traces, concentrations not printed [Peptide 3, column T-1A5]
B7-H3 peptide 5 [7] = molecular target: T8, B7-H3 peptide 5; experiment: biolayer interferometry (Octet), number beside the raw traces [panel D, T-1A5-peptide 5]
B7-H3 peptide 2 [8] = molecular target: T3, B7-H3 peptide 2; experiment: biolayer interferometry (Octet) traces, concentrations not printed [Peptide 2, column ChT-1A5]
B7-H3 peptide 6 [9] = molecular target: T1, B7-H3 peptide 6; experiment: biolayer interferometry (Octet), epitope mapping table [panel D, row Peptide 6]
Protocol: as §1, §2

B7-H3 peptide 4 [10] = molecular target: T2, B7-H3 peptide 4; experiment: biolayer interferometry (Octet) traces, concentrations not printed [Peptide 4, column ChT-1A5]
Protocol: as §1, §2

B7-H3 peptide 3 [11] = molecular target: T9, B7-H3 peptide 3; experiment: biolayer interferometry (Octet) traces, concentrations not printed [Peptide 3, column ChT-1A5]
B7-H3 peptide 1 [12] = molecular target: T6, B7-H3 peptide 1; experiment: biolayer interferometry (Octet) traces, concentrations not printed [Peptide 1, column ChT-1A5]

Row | Binder | binding result (B7-H3 peptide 6 [1]) | binding result (B7-H3 peptide 4 [2]) | binding result (B7-H3 peptide 2 [3]) | binding result (B7-H3 peptide 8) | binding result (B7-H3 peptide 7) | binding result (B7-H3 peptide 1 [4]) | binding result (B7-H3 peptide 10) | Kd (B7-H3 peptide 5 [5]) | binding result (B7-H3 peptide 3 [6]) | Kd (B7-H3 peptide 5 [7]) | binding result (B7-H3 peptide 2 [8]) | binding result (B7-H3 peptide 6 [9]) | binding result (B7-H3 peptide 4 [10]) | binding result (B7-H3 peptide 3 [11]) | binding result (B7-H3 peptide 1 [12])
1 | anti-B7-H3 monoclonal antibody T-1A5 (mouse, isotype IgG1) (antibody, also called T-1A5A10; mAb T-1A5) heavy: QVQLQQSGAELVKPGASVKLSCKASGYTFTSYDINWVRQRPEQGLEWIGWIFPGDDTTNYNENFKGKATLTADKSSSTAYMQLTRLTSEDSAVFFCARSVGFDYWGQGTTLTVSSAKTTPPSVYPLAPGSAAQTNSMVTLGCLVKGYFPEPVTVTWNSGSLSSGVHTFPAVLQSDLYTLSSSVTVPSSTWPSETVTCNVAHPASSTKVDKKIVPRDCGCKPCICTVPEVSSVFIFPPKPKDVLTITLTPKVTCVVVDISKDDPEVQFSWFVDDVEVHTAQTQPREEQFNSTFRSVSELPIMHQDWLNGKEFKCRVNSAAFPAPIEKTISKTKGRPKAPQVYTIPPPKEQMAKDKVSLTCMITDFFPEDITVEWQWNGQPAENYKNTQPIMDTDGSYFVYSKLNVQKSNWEAGNTFTCSVLHEGLHNHHTEKSLSHSPGK light: QIVLIQSPAIMSASPGEKVTMTCSASSSISYMYWYQQKPGTSPKRWIFETSKLASGVPARFSGSGSGTSYSLTISSMEAEDAATYYCHQRSSYPTFGGGTKLEIKRADAAPTVSIFPPSSEQLTSGGASVVCFLNNFYPKDINVKWKIDGSERQNGVLNSWTDQDSKDSTYSMSSTLTLTKDEYERHNSYTCEATHKTSTSPIVKSFNRNEC | no binding | no binding | no binding | no binding | no binding | no binding | no binding | 151 nM | no binding | 151 nM | – | – | – | – | –
2 | human-mouse chimeric anti-B7-H3 antibody ChT-1A5 (antibody, human IgG1, kappa, also called chimeric T-1A5 antibody) heavy: not shown light: QIVLIQSPAIMSASPGEKVTMTCSASSSISYMYWYQQKPGTSPKRWIFETSKLASGVPARFSGSGSGTSYSLTISSMEAEDAATYYCHQRSSYPTFGGGTKLEIKRTVAAPSVFIFPPSDEQLKSGTASVVCLLNNFYPREAKVQWKVDNALQSGNSQESVTEQDSKDSTYSLSSTLTLSKADYEKHKVYACEVTHQGLSSPVTKSFNRGEC | – | – | – | no binding | no binding | – | no binding | – | – | – | no binding | no binding | no binding | no binding | no binding
